Drawing on article doi:10.1101/2024.01.23.574818, this text covers stoichiometry N for one substance.

For this assay, the target named is RmlT, wall teichoic acid rhamnosyltransferase of Listeria monocytogenes EGDe (Listeria monocytogenes EGDe). Kind of assay: SEC. A general note: SEC sorts molecules by how far they enter the pores of the column.

Regarding “RmlT, wall teichoic acid rhamnosyltransferase of Listeria monocytogenes EGDe (enzyme)”, the stoichiometry N worked out at 2.

One may read the stoichiometry N as a count of units in the complex or per binding partner.
